Results reported in patent publication US12383631 (BRIGHT PEAK THERAPEUTICS, dated 2025).

Experiments:
[1] = target: T1, His-tagged human PD1 (R&D #8986-PD) (human, UniProt Q15116 25-167); assay: BLI (Octet), antibody on AHC sensor, His-tagged PD-1 as analyte
T1 construct: bought; not shown: His tag
Text: (§1) Based on Bio-Layer Interferometry (BLI), Octet® BLI systems enable real-time, label-free analysis for the determination of kinetics and affinity of a ligands to its receptor. Here anti-human IgG FC Capture (AHC) sensors are loaded with the test items (ICs). Sensors are first dipped into a kinetic buffer for baseline measurement, then into an analyte solution, here human PD1, to allow association and again into a buffer solution where the analyte is allowed to come off the ligand (dissociation). Several concentrations of analyte are run in parallel and enable the calculation of affinity parameters: Ka, Kd, KD.
(§2) Typically, first, the sensors are regenerated by 3 cycles of dipping into 10 mM glycine solution at pH=2 for 20 seconds, followed by 20 second kinetics buffer and a final 60 seconds in kinetics buffer to establish the initial signal (baseline). Second, the loading column will contain the ligand, here the unmodified PD-1 antibodies and of IL-18 polypeptide conjugated PD-1 antibody, at a fixed concentration determined in the loading scout experiment (20 ug/mL). Then another wash/baseline step allows non immobilized proteins to be washed away. The association column will contain the 2-fold dilution series of the analyte (His-tagged human PD1, R&D #8986-PD) including a no analyte control. […] The dissociation designates the sensors to return to previous baseline column with kinetics buffer. After acquisition, the data is analyzed with Data Analysis Studio software (Sartorius). Data sets are first preprocessed by subtracting references samples and aligning curves on the baseline step. Group fitting is then applied to the data series and kinetics parameters are calculated.

[2] = target: T2, Biotinylated Recombinant Human PD-1/CD279-Fc Chimera, carrier-free (Biolegend #789406) (human, UniProt Q15116 25-167, biotinylated); assay: ELISA; antibody coated, biotinylated PD-1-Fc titrated
T2 construct: bought; also called recombinant biotinylated human PD-1; Fc part of the bought chimera not given
Experimental: (§3) The interaction of the unmodified antibodies and corresponding IL-18 immunocytokines with relevant immune cell associated antigen are measured by ELISA assay. For these studies, Corning high-binding half-area plates (Fisher Scientific, Reinach, Switzerland) are coated overnight at 4° C. with 25 μl of unmodified antibodies corresponding IL-18 immunocytokines at 5 μg/ml in PBS. Plates are then washed four times with 100 μl of PBS-0.02% Tween20. Plate surfaces are blocked with 25 μl of PBS-0.02% Tween20-1% BSA at 37° C. during 1 h. Plates are then washed four times with 100 μl of PBS-0.02% Tween20. […] Plates are then washed four times with 100 μl of PBS-0.02% Tween20. Twenty-five microliters of Streptavidin-Horseradish peroxidase (#RABHRP3, Merck, Buchs, Switzerland) diluted at 1:500 into PBS-0.02% Tween20-0.1% BSA are added to each well and incubated at Room Temperature during 30 min. Plates are then washed four times with 100 μl of PBS-0.02% Tween20. Fifty microliters of TMB substrate reagent (#CL07, Merck, Buchs, Switzerland) are added to each well and incubated at 37° C. during 5 min. After 5 min at 37° C., Horseradish peroxidase reaction is stopped by adding 50 μl/well of 0.5M H_2SO_4 stop solution. ELISA signal is then measured at 450 nm on an ENSPTRE® plate reader from Perkin Elmer (Schwerzenbach, Switzerland).

[3] = target: T2, Biotinylated Recombinant Human …; assay: ELISA: antibody coated on the plate (5 ug/ml), biotinylated human PD-1/CD279-Fc titrated in solution (x-axis), streptavidin-HRP/TMB, 450 nm
Experimental: as §3

[4] = target: T1, His-tagged human PD1 (R&D #8986-PD); assay: BLI (Octet), immunocytokine on AHC sensor, His-tagged PD-1 as analyte
Text: as §1, §2

[5] = target: T2, Biotinylated Recombinant Human …; assay: ELISA: immunocytokine coated on the plate (5 ug/ml), biotinylated human PD-1/CD279-Fc titrated in solution (x-axis), streptavidin-HRP/TMB, 450 nm
Experimental: as §3

[6] = target: T2, Biotinylated Recombinant Human …; assay: ELISA; immunocytokine coated, biotinylated PD-1-Fc titrated
Experimental: as §3

[7] = target: T3, recombinant Human Fc gamma RIIIA/CD16a Protein (R&D systems, 4325-FC-050) (human, UniProt P08637 17-208); assay: ELISA; antibody coated, receptor titrated, anti-His-HRP
T3 construct: detected with an anti-His antibody; tag and allotype not described; also called FcγRIIIa (CD16)
Experimental: (§4) The interaction of the unmodified and of conjugated antibodies with human Fc gamma receptors I (FcγRI/CD64), with human Fc gamma receptors IIa (FcγRIIa/CD32a), with inhibitory human Fc gamma receptors IIb (FcγRIIb/CD32b), and with human Fc gamma receptors III FcγRIIIa/CD16 were measured by ELISA.
(§5) Briefly, Corning high-binding half-area plates (Fisher Scientific, Reinach, Switzerland) were coated overnight at 4° C. with 25 μl of unmodified and of conjugated anti-PD1 antibodies at 2.5 μg/ml in PBS. Plates were then washed four times with 100 μl of PBS-0.02% Tween20. Plates surfaces were blocked with 25 μl of PBS-0.02% Tween20-1% BSA at 37° C. during 1 h. Plates were then washed four times with 100 μl of PBS-0.02% Tween20. Then twenty-five microliters of either recombinant Human Fc gamma RI/CD64 Protein (R&D systems, 1257-FC-050, CF), recombinant Human Fc gamma RIIA/CD32a (H167) Protein (R&D systems, 9595-CD-050, CF), recombinant Human Fc gamma RIIB/CD32b Avi-tag Protein (R&D systems, AVI1875-050, CF), or recombinant Human Fc gamma RIIIA/CD16a Protein (R&D systems, 4325-FC-050; CF) were added in five-fold serial dilutions ranging from 1000 nM to 0.001 nM into PBS-0.02% Tween20-0.1% BSA and incubated at 37° C. during 2 h. Plates were then washed four times with 100 μl of PBS-0.02% Tween20. Twenty-five microliters of a 1/500 HRP-anti-His antibody in PBS—0.02% Tween20-0.1% BSA (R&D systems, anti-HIS—HRP Ab, #MAB050H) were added to each well and plates were incubated at Room Temperature during 1 h. Plates were then washed four times with 100 μl of PBS-0.02% Tween20. Fifty microliters of TMB substrate reagent (#CL07, Merck, Buchs, Switzerland) were added to each well and incubated at 37° C. during 5 min. After 5 min at 37° C., Horseradish peroxidase reaction was stopped by adding 50 μl/well of 0.5M H2SO4 stop solution. ELISA signal was then measured at 450 nm on an EnSpire plate reader from Perkin Elmer (Schwerzenbach, Switzerland). Binding Affinity of Reference Antibodies and Immunocytokines with Human Fc Gamma Receptors as Measured by ELISA

[8] = target: T4, recombinant Human Fc gamma RIIA/CD32a (H167) Protein (R&D systems, 9595-CD-050) (human, UniProt P12318 36-218); assay: as above
T4 construct: detected with an anti-His antibody; tag not described; also called FcγRIIa (CD32a)
T4 sequence (looked up): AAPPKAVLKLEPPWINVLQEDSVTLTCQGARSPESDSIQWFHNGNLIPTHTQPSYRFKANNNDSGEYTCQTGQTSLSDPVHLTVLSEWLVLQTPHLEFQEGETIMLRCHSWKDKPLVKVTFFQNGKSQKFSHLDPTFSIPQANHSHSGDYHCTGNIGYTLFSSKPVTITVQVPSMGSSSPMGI
Experimental: as §4, §5

[9] = target: T5, recombinant Human Fc gamma RI/CD64 Protein (R&D systems, 1257-FC-050) (human, UniProt P12314 16-288); assay: as above
T5 construct: detected with an anti-His antibody; tag not described; also called FcγRI/CD64; human Fc gamma receptor I
Experimental: as §4, §5

[10] = target: T6, recombinant Human Fc gamma RIIB/CD32b Avi-tag Protein (R&D systems, AVI1875-050) (human, UniProt P31994 46-217); assay: as above
T6 construct: also called FcγRIIb (CD32b); not shown: Avi-tag
T6 sequence (looked up): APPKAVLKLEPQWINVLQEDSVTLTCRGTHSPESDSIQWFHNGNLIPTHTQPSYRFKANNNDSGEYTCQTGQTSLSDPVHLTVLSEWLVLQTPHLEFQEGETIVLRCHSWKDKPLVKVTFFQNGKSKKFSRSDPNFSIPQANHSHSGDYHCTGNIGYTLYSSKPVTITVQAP
Experimental: as §4, §5

[11] = target: T7, recombinant biotinylated human FcRn (human, UniProt P55899 24-297; P61769 21-119, limits assumed, biotinylated); assay: AlphaLISA competition at pH 6; competitor: human IgG on acceptor beads
T7 construct: also called human neonatal Fc receptor (FcRn)
Experimental: The interaction of the unmodified and of conjugated anti-PD1 antibodies with the human neonatal Fc receptor (FcRn) at pH 6 was measured using the AlphaLISA® Human FcRn Binding Kit (AL3095C) from Perkin Elmer (Schwerzenbach, Switzerland).
After 90 min at 23° C. in the dark, AlphaLISA® signal was measured on an EnSpire plate reader (Excitation at 680 nm, Emission at 615 nm) from Perkin Elmer (Schwerzenbach, Switzerland). Binding Affinity of Reference Antibodies and Immunocytokines with the Human Neonatal Fc Receptor as Measured by AlphaLISA

B1: LZM-009 (antibody, V domains shown)
VH: QVQLVQSGAEVKKPGASVKVSCKASGYTFTSYYMYWVRQAPGQGLEWMGGVNPSNGGTNFNEKFKSRVTITADKSTSTAYMELSSLRSEDTAVYYCARRDYRYDMGFDYWGQGTTVTVSS
VL: EIVLTQSPATLSLSPGERATISCRASKGVSTSGYSYLHWYQQKPGQAPRLLIYLASYLESGVPARFSGSGSGTDFTLTISSLEPEDFATYYCQHSRELPLTFGTGTKVEIK
notes: also called LZM-009 anti-PD-1 antibody
- Kd [1]: 23.5 nM
- koff [1]: 0.0077 s⁻¹
- kon [1]: 342000 M⁻¹ s⁻¹
- Kd [2]: 0.0407 nM
- EC50 (read off the curve) [3]: ~0.06 nM

B2: Composition A (LZM-009 conjugated to IL-18 polypeptide of SEQ ID NO: 30) (other)
VH: QVQLVQSGAEVKKPGASVKVSCKASGYTFTSYYMYWVRQAPGQGLEWMGGVNPSNGGTNFNEKFKSRVTITADKSTSTAYMELSSLRSEDTAVYYCARRDYRYDMGFDYWGQGTTVTVSS
VL: EIVLTQSPATLSLSPGERATISCRASKGVSTSGYSYLHWYQQKPGQAPRLLIYLASYLESGVPARFSGSGSGTDFTLTISSLEPEDFATYYCQHSRELPLTFGTGTKVEIK
chain: YFGKLKSKLSIIRNLNDQVLFIDQGNRPLFEDMTDSDARDNAPRTIFIISMYADSQPRGMAVAISVKCEKISTLSAENKIISFKEMNPPDNIKDTKSDIIFFQRSVPGHDNKMQFESSSYEGYFLAAEKERDLFKLILKKEDELGDRSIMFTVQNED
- Kd [4]: 11.5 nM
- koff [4]: 0.00479 s⁻¹
- kon [4]: 454000 M⁻¹ s⁻¹
- EC50 (read off the curve) [5]: ~0.07 nM
- Kd [6]: 0.0467 nM

B3: Durvalumab/Imfinzi (antibody, human IgG1, kappa)
heavy: EVQLVESGGGLVQPGGSLRLSCAASGFTFSRYWMSWVRQAPGKGLEWVANIKQDGSEKYYVDSVKGRFTISRDNAKNSLYLQMNSLRAEDTAVYYCAREGGWFGELAFDYWGQGTLVTVSSASTKGPSVFPLAPSSKSTSGGTAALGCLVKDYFPEPVTVSWNSGALTSGVHTFPAVLQSSGLYSLSSVVTVPSSSLGTQTYICNVNHKPSNTKVDKRVEPKSCDKTHTCPPCPAPEFEGGPSVFLFPPKPKDTLMISRTPEVTCVVVDVSHEDPEVKFNWYVDGVEVHNAKTKPREEQYNSTYRVVSVLTVLHQDWLNGKEYKCKVSNKALPASIEKTISKAKGQPREPQVYTLPPSREEMTKNQVSLTCLVKGFYPSDIAVEWESNGQPENNYKTTPPVLDSDGSFFLYSKLTVDKSRWQQGNVFSCSVMHEALHNHYTQKSLSLSPGK
light: EIVLTQSPGTLSLSPGERATLSCRASQRVSSSYLAWYQQKPGQAPRLLIYDASSRATGIPDRFSGSGSGTDFTLTISRLEPEDFAVYYCQQYGSLPWTFGQGTKVEIKRTVAAPSVFIFPPSDEQLKSGTASVVCLLNNFYPREAKVQWKVDNALQSGNSQESVTEQDSKDSTYSLSSTLTLSKADYEKHKVYACEVTHQGLSSPVTKSFNRGEC
notes: also called MEDI-4736
- Kd [7]: 234 nM
- Kd [8]: 160 nM
- Kd [9]: 2.34 nM
- Kd [10]: 233 nM
- Kd [11]: 8.31 nM
